Patent publication US8247376B2, “NGAL for reduction and amelioration of ischemic and nephrotoxic injuries” (The Trustees of Columbia University, priority 2004, dated 2012)
“Also recorded” adds a separate entry of the source.

Columns and labels:
[1] = test system: ischemia-reperfusion injury in mice; assay: Serum creatinine 24 h after bilateral renal artery clamping, NGAL intravenous; assay type: in vivo
Protocol: (§1) Purified endotoxin-free NGAL was administered either intravenously into mice via tail vein injections, subcutaneously, or intraperitoneally. In preliminary studies, animals were treated with three different concentrations of NGAL (50, 100, or 250 μg of a 250 μg/100 solution), subjected to 30 minutes of bilateral renal artery clamping one hour later, and examined after 24 hours of reflow. […] All subsequent studies as reported here were carried out using the 250 μg dose of NGAL. Comparisons were made between five different animal groups: non-ischemic controls (n=8), ischemic controls pre-treated with saline alone (n=8), NGAL pre-treated one hour prior to renal artery clamping (n=6), NGAL treated during renal artery clamping (n=6), and NGAL treated one hour post renal artery clamping (n=6).
(§2) Male C57BL/6 mice (20-25 gr; Charles River) were anesthetized with intraperitoneal pentobarbital (50 mg/kg) and placed on a heating pad under a warming light to maintain 37© core body temperature. Kidneys were exposed through an abdominal section and the right kidney was either removed or its vascular pedicle and ureter ligated. The vascular pedicle of the left kidney or both kidneys was clamped by a microaneurysm clip (Kent Scientific) for 30 minutes after right nephrectomy. This period of ischemia generated reproducible renal injury but minimized mortality. During the procedure, PBS (0.5 ml) was used to dampen the peritoneum. The animal was closed with 5-0 Nylon. Saline, NGAL, retinol-loaded retinol binding protein (RBP), enterochelin, or desferroxamine mesylate (DFO) were injected into the peritoneum or subcutaneously 15 min. prior to ischemia or 1-2 hr after reperfusion.
For some studies, the mice were allowed to recover in a warmed cage, and timed urine collections were obtained. […] The mice were killed, the kidneys perfusion fixed in situ with 4% paraformaldehyde in PBS, and both kidneys harvested. One half of each kidney was snap frozen in liquid nitrogen and stored at −70° C. until further processing; a sample was fixed in formalin, paraffin-embedded, and sectioned (4 μm). Paraffin sections were stained with hematoxylin-eosin and examined histologically. The other half of each kidney was embedded in OCT compound (Tissue-Tek) and frozen sections (4 μm) obtained for immunohistochemistry.

tubule epithelial cells = assay: PCNA proliferation assay on kidney sections; assay type: in vivo, mice; details: 24 h reflow
Protocol: as §1
For detection of proliferating cells, sections were incubated with a monoclonal antibody to Proliferating Cell Nuclear Antigen (PCNA, 1:500 dilution, Upstate Biotechnology), and detection accomplished by immunoperoxidase staining as recommended by the manufacturer (ImmunoCruz Staining System, Santa Cruz Biotechnology). Slides were examined in a blinded fashion, and proliferation was quantified by counting the number of PCNA positive cells per 100 cells counted in an average of five high power (40×) fields in each section.

[2] = Uptake of intravenous NGAL into kidney and urine (immunofluorescence, Western blot); assay type: in vivo, mice; details: within one hour of iv injection of 250 μg
Protocol: as §1
For NGAL detection, frozen kidney sections were permeabilized with 0.2% Triton X-100 in PBS for 10 min, blocked with goat serum for 1 hr, and incubated with primary antibody to NGAL (1:500 dilution) for 1 hr. Slides were then exposed for 30 min in the dark to secondary antibodies conjugated with Cy5 (Amersham, Arlington Heights, Ill.), and visualized with a fluorescent microscope (Zeiss Axiophot) equipped with rhodamine filters.

[3] = test system: mouse model of ATN or ischemia/reperfusion injury; assay: Kidney histology in mouse ATN model; assay type: in vivo, mice; details: NGAL-treated ATN kidneys vs ATN
Protocol: as §2
After 6 or 24 hr of reperfusion, heparinized plasma, urine and kidney samples were obtained to measure NGAL (polyclonal 1:500), Heme oxygenase-1 (Stressgen, 1:2000), E-cadherin (BD Transduction Labs, 1:2000), N-cadherin (BD Transduction Labs, 1:3000) and GAPDH (Chemicon International, 1:3000) using immunoblots. Plasma was also used for creatinine and blood urea nitrogen colorimetric assays. Sagittal sections of the kidney were fixed in 4% formalin, or were snap frozen for mRNA and protein analysis. […]

N-cadherin = N-cadherin immunofluorescence and immunoblot in ischemic kidney; assay type: in vivo, mice; details: pre-treatment with NGAL, 6 or 24 hours of reperfusion
Description: (§3) After 6 or 24 hr of reperfusion, heparinized plasma, urine and kidney samples were obtained to measure NGAL (polyclonal 1:500), Heme oxygenase-1 (Stressgen, 1:2000), E-cadherin (BD Transduction Labs, 1:2000), N-cadherin (BD Transduction Labs, 1:3000) and GAPDH (Chemicon International, 1:3000) using immunoblots. Plasma was also used for creatinine and blood urea nitrogen colorimetric assays. Sagittal sections of the kidney were fixed in 4% formalin, or were snap frozen for mRNA and protein analysis. Paraffin-embedded sections (5 μm) were stained with hematoxylin-eosin or by an in situ kit (Fluorescein-TUNEL, Roche) for apoptotic nuclei or for total nuclei (Toprol, Molecular Probes). For cell proliferation analysis, BrdU was injected into the peritoneum 1 hour before sacrifice, and cryostat sections were stained with anti-BrdU (Roche) according to the manufacturer.

cortical tubules = assay: Fluorescein-TUNEL: percentage of cortical tubules with TUNEL-positive cell; assay type: in vivo, mice; details: 24 h after reperfusion, SEM; ischemic 11.5%, sham 0.5%
Description: as §3

endogenous NGAL = assay: Endogenous NGAL expression after exogenous NGAL (real time PCR, immunoblot); assay type: in vivo, mice; parameters: reduction of the increase in endogenous NGAL RNA / reduction of endogenous NGAL protein in the kidney: dose or concentration left out as unconfirmed
Description: as §3
Total RNA was extracted from mouse kidneys using RNeasy mini kit (Qiagen) with on-column DNase digestion according to the manufacturer's instructions. The cDNA template was synthesized using Omniscript Reverse Transcriptase and oligo-dT primer (Qiagen). The PCR reaction was carried out using iQ SYBR green super mix and MyiQ single-color real-time PCR detection system (Biorad) with incubation times of 2 min at 95° C., followed by 40 cycles of 95° C./30 s and 60° C./30 s. Specificity of the amplification was checked by melting curve analysis and by agarose gel electrophoresis. Primer sequences for mouse NGAL mRNA (Genbank NM_008491) were […] (forward primer, positions 93-112) and […] (reverse, 576-557). Sequences for mouse β-actin mRNA (Genbank X03672) were […] (forward, 415-434) and […] (reverse, 696-677). Each plate included a dilution series of standard sample, which was used to determine mRNA quantities. The NGAL mRNA content was normalized by β-actin mRNA.

heme oxygenase-1 (HO-1) = assay: Heme oxygenase-1 immunoblot of kidney; assay type: in vivo, mice
Description: as §3

[4] = Cofactor-dependent ^55Fe binding to NGAL (10 kDa filter retention)
Protocol: The urine fraction was obtained by passing fresh urine sequentially through 10 kDa and 3 kDa membranes (YM-10 and YM-3, Amicon). The mixture was then washed three times on 10 kDa membrane (YM-10, Amicon). Iron-free enterochelin-loaded NGAL (rather than NGAL without siderophore) served as a positive control for iron capture. Ferric citrate (1 mM) or iron-loaded enterochelin (Sid:Fe, 50 μM) were used as competitors of ^55Fe binding.

B1: NGAL: Purified endotoxin-free recombinant NGAL expressed as GST fusion protein in bacteria, thrombin cleaved (protein, UniProt P80188 21-198, looked up)
Neutrophil …: QDSTSDLIPAPPLSKVPLQQNFQDNQFQGKWYVVGLAGNAILREDKDPQKMYATIYELKEDKSYNVTSVLFRKKKCDYWIRTFVPGCQPGEFTLGNIKSYPGLTSYLVRVVSTNYNQHAMVFFKKVSQNREYFKITLYGRTKELTSELKENFIRFSKSLGLPENHIVFPVPIDQCIDG
[1]; 250 μg NGAL one hour before 30 min bilateral renal artery clamping, 24 h reflow, vs saline, doses 50, 100, 250 μg tested
  protection from the tubular damage and azotemia: significant protection from the tubular damage and azotemia
[1]; NGAL 250 μg iv during ischemia (Dur NGAL)
  serum creatinine at 24 hours of reflow: 1.5±0.2 mg/di
[1]; NGAL 250 μg iv one hour after ischemia (Post NGAL)
  serum creatinine at 24 hours of reflow: 1.95±0.2 mg/di
[1]; NGAL 250 μg iv one hour before ischemia (Pre NGAL), saline 2.6±0.28, non-ischemic 0.65±0.13
  serum creatinine at 24 hours of reflow: 1.25 ± 0.3 mg/dL
Tubule epithelial cells; NGAL during ischemia
  PCNA-positive tubule epithelial cells per hundred cells: 14.9%±1.2
Tubule epithelial cells; NGAL one hour after ischemia
  PCNA-positive tubule epithelial cells per hundred cells: 14.5%±1.2
Tubule epithelial cells; NGAL one hour before ischemia, saline 4.4%±1.2
  PCNA-positive tubule epithelial cells per hundred cells: 19.1%±2.1
[2]
  NGAL in urine by Western blot: detected in the urine within one hour of injection; also recorded: easily detected in the kidney and urine
[2]; ischemic mice
  NGAL in kidney by immunofluorescence: easily detected in a punctate cytoplasmic distribution predominantly in the proximal tubules
[3]
  kidney histology (tubule morphology): normal epithelial morphology was preserved in the S1 and S2 segments of the proximal tubule; also recorded: preservation of cortical tubules, but residual cortical-medullary casts
N-cadherin
  N-cadherin expression in ischemic kidney: preserved N-cadherin immunofluorescence, enhanced the expression of full length N-cadherin and reduced the appearance of its fragment; also recorded: rescued
Cortical tubules
  percentage of cortical tubules with at least one TUNEL-positive tubular cell: 2.9%±0.9
Endogenous NGAL; 24 hours of reperfusion, real time PCR
  reduction of the increase in endogenous NGAL RNA: 72%±16
Endogenous NGAL; NGAL-treated ischemia, ischemia 73±7
  endogenous NGAL protein in the kidney: 29 ± 7 µg/g
Endogenous NGAL; immunoblot
  reduction of endogenous NGAL protein in the kidney: 2.5 fold
Heme oxygenase-1 (HO-1); ATN-injured mice, 10-100 μg NGAL, 24 hours after reperfusion
  upregulation of HO-1 over ATN alone: 5-10 fold
Heme oxygenase-1 (HO-1); healthy mice (Sham), increasing doses of NGAL
  expression of HO-1 after NGAL injection: much less than the NGAL-treated ATN-injured kidneys
[4]; 30 μl of mouse urine
  NGAL molecules that bound iron: approximately 20%
[4]; with mouse urine fraction (<3,000 Da), washed on 10 kDa filter
  retention of ^55Fe: permitted the retention of ^55Fe
